Target: SARS-CoV-2 spike S1 protein (SARS-CoV-2, UniProt P0DTC2 13-685)
Test: fluorescence recovery (target-induced release of the probe from Nb2C MXene quencher)
Details: protein: recombinant

B1: SARS-CoV-2 S-RBD aptamer (G-CDs@Apt) (ssDNA)
DNA: CAGCACCGACCTTGTGCTTTGGGAGTGCTGGTCCAAGGGCGTTAATGGACA
modifications: 5'-NH2-C6
  binding result: binds
